Measured values from patent US20240190940A1 (published 2024).
Values belong to the binder of their own block, whether it stands above or below them.

Legend:
[1] = target: T1, NRAS Q61K peptide on HLA-B*27:01 (human); test: cytokine release
T1 peptide: ILDTAGKEEY

[2] = target: T2, NRAS Q61K peptide on HLA-C*07:01 (human); test: cytokine release
T2 peptide: ILDTAGKEEY

[3] = target: T3, NRAS Q61R peptide on HLA-A*01:01 (human); test: cytokine release
T3 peptide: ILDTAGREEY

[4] = target: T4, NRAS Q61K peptide on HLA-A*02:01 (human); test: cytokine release
T4 peptide: ILDTAGKEEY

[5] = target: T5, NRAS Q61K peptide on HLA-B*08:01 (human); test: cytokine release
T5 peptide: ILDTAGKEEY

[6] = target: T6, NRAS Q61K (Q61K RAS; same sequence in KRAS and HRAS Q61K) peptide on HLA-A*01:01 (human); test: multimer staining
T6 peptide: ILDTAGKEEY

[7] = target: Q61K RAS 10-mer peptide … presented by HLA-A*01:01 on cells (human); test: cell-based or functional assay

binding result [1]: no recognition
binding result [2]: no recognition
binding result [3]: no recognition
binding result [4]: no recognition
binding result [5]: no recognition
binding result [6]: recognises
B1: 3795 (TCR, V domains shown)
Valpha: AQKVTQAQTEISVVEKEDVTLDCVYETRDTTYYLFWYKQPPSGELVFLIRRNSFDEQNEISGRYSWNFQKSTSSFNFTITASQVVDSAVYFCALSESHNNAGNMLTFGGGTRLMVKP
Vbeta: NAGVTQTPKFQVLKTGQSMTLQCAQDMNHNSMYWYRQDPGMGLRLIYYSASEGTTDKGEVPNGYNVSRLNKREFSLRLESAAPSQTSVYFCAASQNTEAFFGQGTRLTVV

4-1BB upregulation by TCR-transduced CD8+ effector cells (flow cytometry), autologous DC pulsed with various peptide concentrations [7]: > 0.01 µg/ml
B2: TCR 3795, cysteine-substituted, LVL-modified chimeric TCR (human variable regions, murine constant regions) (TCR)
TCR alpha: AQKVTQAQTEISVVEKEDVTLDCVYETRDTTYYLFWYKQPPSGELVFLIRRNSFDEQNEISGRYSWNFQKSTSSFNFTITASQVVDSAVYFCALSESHNNAGNMLTFGGGTRLMVKPNIQNPEPAVYQLKDPRSQDSTLCLFTDFDSQINVPKTMESGTFITDKCVLDMKAMDSKSNGAIAWSNQTSFTCQDIFKETNATYPSSDVPCDATLTEKSFETDMNLNFQNLLVIVLRILLLKVAGFNLLMTLRLWSS
TCR beta: NAGVTQTPKFQVLKTGQSMTLQCAQDMNHNSMYWYRQDPGMGLRLIYYSASEGTTDKGEVPNGYNVSRLNKREFSLRLESAAPSQTSVYFCAASQNTEAFFGQGTRLTVVEDLRNVTPPKVSLFEPSKAEIANKQKATLVCLARGFFPDHVELSWWVNGKEVHSGVCTDPQAYKESNYSYCLSSRLRVSATFWHNPRNHFRCQVQFHGLSEEDKWPEGSPKPVTQNISAEAWGRADCGITSASYQQGVLSATILYEILLGKATLYAVLVSTLVVMAMVKRKNS
